This is an account of results in patent EP1775307B1 (dated 2011).

Test [1] concerns the target 28/32 kDa heterodimeric antigen on the surface of malignant B-cells (human). The experiment in a line: Scatchard analysis, 125I-labeled antibody on Raji cells.
The target in test [2] is T1, human CD3 antigen (CD3 complex) on T cells (human, UniProt P07766 23-207).
T1 construct: whole, on cells; Multi-subunit complex; also called human CD3 complex
The experiment in a line: Scatchard analysis, 125I-labeled HuM291-Fos on activated human T cells.

T1 sequence (P07766 23-207, one chain of several): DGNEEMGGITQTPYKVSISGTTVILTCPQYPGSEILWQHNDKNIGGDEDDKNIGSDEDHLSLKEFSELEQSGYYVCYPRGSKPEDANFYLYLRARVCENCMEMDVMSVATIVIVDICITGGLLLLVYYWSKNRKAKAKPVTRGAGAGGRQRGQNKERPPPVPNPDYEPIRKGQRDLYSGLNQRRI

The molecule humanized 1D10-IgG1 (antibody) registered a Ka in test [1] of 2.3e+08 M⁻¹.

B1: HuM291-Fos F(ab'-zipper)2 (other)
chain 1: QVQLVQSGAEVKKPGASVKVSCKASGYTFISYTMHWVRQAPGQGLEWMGYINPRSGYTHYNQKLKDKATLTADKSASTAYMELSSLRSEDTAVYYCARSAYYDYDGFAYWGQGTLVTVSSASTKGPSVFPLAPSSKSTSGGTAALGCLVKDYFPEPVTVSWNSGALTSGVHTFPAVLQSSGLYSLSSVVTVPSSSLGTQTYICNVNHKPSNTKVDKKVEPKSCDKTHTCPPCKCPAGGLTDTLQAETDQLEDKKSALQTEIANLLKGKEKLEFILAATS
chain 2: DIQMTQSPSSLSASVGDRVTITCSASSSVSYMNWYQQKPGKAPKRLIYDTSKLASGVPSRFSGSGSGTDFTLTISSLQPEDFDTYYCQQWSSNPPTFGGGTKVEIKRTVAAPSVFIFPPSDEQLKSGTASVVCLLNNFYPREAKVQWKVDNALQSGNSQESVTEQDSKDSTYSLSSTLTLSKADYEKHKVYACEVTHQGLSSPVTKSFNRGEC
In test [2], B1 returned a Ka of 1.1e+09 M⁻¹.
